Results published in FireProtDB (doi:10.1110/ps.8.7.1500).

Conditions: Aspergillus oryzae (strain ATCC 42149 / RIB 40), Thermal, DSC, whole UniProt chain shown

B1: Guanyl-specific ribonuclease T1 wild type, P00651 (protein)
chain: MMYSKLLTLTTLLLPTALALPSLVERACDYTCGSNCYSSSDVSTAQAAGYQLHEDGETVGSNSYPHKYNNYEGFDFSVSSPYYEWPILSSGDVYSGGSPGADRVVFNENNQLAGVITHTGASGNNFVECT
- unfolding free energy (pH 2.8, 17.1 °C, glycine 10 mM): 5.6 kcal/mol
- unfolding free energy (pH 2.8, 21.1 °C, glycine 10 mM): 4.9 kcal/mol
- unfolding free energy (pH 2.8, 24.9 °C, glycine 10 mM): 4.3 kcal/mol
- unfolding free energy (pH 2.8, 25 °C, glycine 10 mM): 4.3 kcal/mol
- unfolding free energy (pH 2.8, 27.8 °C, glycine 10 mM): 3.7 kcal/mol
- unfolding free energy (pH 3, 25 °C, glycine 10 mM): 5.2 kcal/mol
- Tm (pH 3, glycine 10 mM): 49.1 °C
- unfolding enthalpy (calorimetric) (pH 3, glycine 10 mM): 82.7 kcal/mol
- unfolding free energy (pH 3.6, 25 °C, acetate 10 mM): 6.7 kcal/mol
- unfolding free energy (pH 4, 25 °C, acetate 10 mM): 7.2 kcal/mol
- unfolding free energy (pH 5, 25 °C, acetate 10 mM): 8.1 kcal/mol
- Tm (pH 5, acetate 10 mM): 58.6 °C
- unfolding enthalpy (calorimetric) (pH 5, acetate 10 mM): 99.1 kcal/mol
- unfolding free energy (pH 6, 25 °C, MOPS or HEPES 10 mM): 8.5 kcal/mol
- Tm (pH 6, MOPS or HEPES 10 mM): 60.3 °C
- unfolding enthalpy (calorimetric) (pH 6, MOPS or HEPES 10 mM): 101 kcal/mol
- Tm (pH 7, MOPS or HEPES 10 mM): 61.8 °C
- unfolding enthalpy (calorimetric) (pH 7, MOPS or HEPES 10 mM): 102 kcal/mol
